# According to US20050113304:
# B1: Botulinum toxin B (protein)
# chain 1: PVTINNFNYNDPIDNNNIIMMEPPFARGTGRYYKAFKITDRIWIIPERYTFGYKPEDFNKSSGIFNRDVCEYYDPDYLNTNDKKNIFLQTMIKLFNRIKSKPLGEKLLEMIINGIPYLGDRRVPLEEFNTNIASVTVNKLISNPGEVERKKGIFANLIIFGPGPVLNENETIDIGIQNHFASREGFGGIMQMKFCPEYVSVFNNVQENKGASIFNRRGYFSDPALILMHELIHVLHGLYGIKVDDLPIVPNEKKFFMQSTDAIQAEELYTFGGQDPSIITPSTDKSIYDKVLQNFRGIVDRLNKVLVCISDPNININIYKNKFKDKYKFVEDSEGKYSIDVESFDKLYKSLMFGFTETNIAENYKIKTRASYFSDSLPPVKIKNLLDNEIYTIEEGFNISDKDMEKEYRGQNKAINKQAYEEISKEHLAVYKIQMCKSVK
# chain 2: APGICIDVDNEDLFFIADKNSFSDDLSKNERIEYNTQSNYIENDFPINELILDTDLISKIELPSENTESLTDFNVDVPVYEKQPAIKKIFTDENTIFQYLYSQTFPLDIRDISLTSSFDDALLFSNKVYSFFSMDYIKTANKVVEAGLFAGWVKQIVNDFVIEANKSNTMDKIADISLIVPYIGLALNVGNETAKGNFENAFEIAGASILLEFIPELLIPVVGAFLLESYIDNKNKIIKTIDNALTKRNEKWSDMYGLIVAQWLSTVNTQFYTIKEGMYKALNYQAQALEEIIKYRYNIYSEKEKSNINIDFNDINSKLNEGINQAIDNINNFINGCSVSYLMKKMIPLAVEKLLDFDNTLKKNLLNYIDENKLYLIGSAEYEKSKVNKYLKTIMPFDLSIYTNDTILIEMFNKYNSEILNNIILNLRYKDNNLIDLSGYGAKVEVYDGVELNDKNQFKLTSSANSKIRVTQNQNIIFNSVFLDFSVSFWIRIPKYKNDGIQNYIHNEYTIINCMKNNSGWKISIRGNRIIWTLIDINGKTKSVFFEYNIREDISEYINRWFFVTITNNLNNAKIYINGKLESNTDIKDIREVIANGEIIFKLDGDIDRTQFIWMKYFSIFNTELSQSNIEERYKIQSYSEYLKDFWGNPLMYNKEYYMFNAGNKNSYIKLKKDSPVGEILTRSKYNQNSKYINYRDLYIGEKFIIRRKSNSQSINDDIVRKEDYIYLDFFNLNQEWRVYTYKYFKKEEEKLFLAPISDSDEFYNTIQIKEYDEQPTYSCQLLFKKDEESTDEIGLIGIHRFYESGIVFEEYKDYFCISKWYLKEVKRKPYNLKLGCNWQFIPKDEGWTE
# Molecular target: T1, Buforin I
# T1 chain: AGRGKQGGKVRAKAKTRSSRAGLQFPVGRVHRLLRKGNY
protein,measurement,value
B1,substrate cleavage in the endopeptidase assay,B-I is not a substrate for BttxB
